Data reported in the supplement of paper PMC7877785.
± gives the uncertainty stated by the source.

Assay: self-splicing fitness, log relative to wild type (ln ratio); higher = more splicing; Tetrahymena group I intron in knt gene, E. coli kanamycin selection, DiMSum; sequences stand for … in CUCUCU…GGAGGGAAAAGUUAUCAGGCAUGCACCUGGUAGCUAGUCUUUAAACCAAUAGAUUGCAUCGGUUUAAAAGGCAAGACCGUCAAAUUGCGGGAAAGGGGUCAACAGCCGUUCAGUACCAAGUCUCAGGGGAAACUUUGAGAUGGCCUUGCAAAGGGUAUGGUAAUAAGCUGACGGACAUGGUCCUAACCACGCAGCCAAGUCCUAAGUCAACAGAUCUUCUGUUGAUAUGGAUGCAGUUCACAGACUAAAUGUCGGUCGGGGAAGAUGUAUUCUUCUCAUAAGAUAUAGUCGGACCUCUCCUUAAUGGGAGCUAGCGGAUGAAGUGAUGCAACACUGGAGCCGCUGGGAACUAAUUUGUAUGCGAAAGUAUAUUGAUUAGUUUUGGAGUACUCGUGGUCG
How it was run: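 Fitness was computed with DiMSum as the error-weighted combination of replicate fold changes, kanamycin versus none, each normalised to wild type. The library randomised all eight intron nucleotides of the P1ex region, with the intron placed in the knt kanamycin-resistance gene on pET-22b(+) in E. coli BL21(DE3). Six replicate transformations were grown overnight at 37°C or 30°C on LB agar with or without 25 μg/mL kanamycin, plus 100 μg/mL carbenicillin, 50 μM IPTG and 0.2% rhamnose. Pooled colonies were amplicon-sequenced on an Illumina HiSeq 2500.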

Sequence | self-splicing fitness (ln) (30 °C) | self-splicing fitness (ln) (37 °C)
ACUCAGCAAUAUUACGUAAU | -0.934 ± 0.057 | -0.31 ± 0.076
CUGCAGCAAUAUUACGAGAC | -2.19 ± 0.16 | -1.31 ± 0.16
UAUAAGCAAUAUUACGAUAA | -1.17 ± 0.12 | -0.947 ± 0.12
AGGUAGCAAUAUUACGGUGA | -1.732 ± 0.017 | -1.06 ± 0.033
CAACAGCAAUAUUACGUAGC | -4.19 ± 0.12 | -2.49 ± 0.12
ACAAAGCAAUAUUACGAUAU | -2.1 ± 0.088 | -1.15 ± 0.1
UCACAGCAAUAUUACGCAAA | -2.74 ± 0.19 | -2.91 ± 0.17
CAUUAGCAAUAUUACGCUCG | -0.328 ± 0.11 | 0.302 ± 0.13
ACCGAGCAAUAUUACGGUAU | -3.76 ± 0.2 | -1.81 ± 0.14
UCAGAGCAAUAUUACGGUUC | -3.72 ± 0.33 | -1.84 ± 0.21
CAUUAGCAAUAUUACGACAA | -2.37 ± 0.24 | -2.09 ± 0.32
CUGCAGCAAUAUUACGGGUG | -0.771 ± 0.049 | -0.0809 ± 0.058
AAAGAGCAAUAUUACGGUGG | -2.85 ± 0.15 | -2.14 ± 0.25
GUCCAGCAAUAUUACGCAGG | -4.01 ± 0.18 | -3.72 ± 0.24
UGGUAGCAAUAUUACGGCAG | -1.15 ± 0.13 | 0.129 ± 0.17
GUCCAGCAAUAUUACGCCGU | -1.29 ± 0.13 | -0.122 ± 0.13
CGAGAGCAAUAUUACGCAAA | -2.67 ± 0.27 | 
UACCAGCAAUAUUACGGUGC | -3.21 ± 0.12 | -2.64 ± 0.2
UUAGAGCAAUAUUACGGUGC | -3.76 ± 0.28 | -2.11 ± 0.36
CGCAAGCAAUAUUACGGGCC | -1.55 ± 0.12 | -1.02 ± 0.17
AAGCAGCAAUAUUACGAGUA | -2.87 ± 0.19 | -2.08 ± 0.14
ACAAAGCAAUAUUACGCCUG | -0.933 ± 0.07 | -0.0625 ± 0.085
UUACAGCAAUAUUACGUCUG | -1.59 ± 0.13 | -1.07 ± 0.12
AAUCAGCAAUAUUACGCCCA | -0.426 ± 0.16 | 0.216 ± 0.21

Sequence | self-splicing fitness (ln) (30 °C) | self-splicing fitness (ln) (37 °C)
UAGGAGCAAUAUUACGGGUG | -2.74 ± 0.27 | -1.14 ± 0.26
AAGCAGCAAUAUUACGCUAG | -2.56 ± 0.12 | -2.84 ± 0.14
UACGAGCAAUAUUACGAGUC | -2.81 ± 0.38 | -3.01 ± 0.43
ACAGAGCAAUAUUACGCGUA | -3.21 ± 0.2 | -2.91 ± 0.23
UCAGAGCAAUAUUACGGUUG | -3.9 ± 0.31 | -2.35 ± 0.26
UGCAAGCAAUAUUACGACCA | -0.338 ± 0.37 | -0.273 ± 0.3
AUUUAGCAAUAUUACGGCUG | -0.937 ± 0.12 | -0.723 ± 0.13
UUAUAGCAAUAUUACGUUUG | -2.12 ± 0.15 | -1.14 ± 0.18
UCGCAGCAAUAUUACGUUCU | -3.58 ± 0.18 | -2.31 ± 0.11
GGGGAGCAAUAUUACGAAUU | -1.24 ± 0.19 | -0.992 ± 0.25
AUACAGCAAUAUUACGGAAC | -3.46 ± 0.43 | -1.67 ± 0.35
UAUAAGCAAUAUUACGUCCA | -1.23 ± 0.12 | 0.113 ± 0.18
UAGAAGCAAUAUUACGCAGC | -4.25 ± 0.46 | -2.93 ± 0.31
GCUCAGCAAUAUUACGUAAU | -0.739 ± 0.072 | 0.436 ± 0.092
GAGAAGCAAUAUUACGCCGA | -2.1 ± 0.24 | -0.228 ± 0.17
GGUAAGCAAUAUUACGAGUU | -1.56 ± 0.097 | -0.413 ± 0.12
AGGCAGCAAUAUUACGACCU | -1.51 ± 0.14 | -1.28 ± 0.17
UUGAAGCAAUAUUACGACGG | 0.0862 ± 0.13 | 0.756 ± 0.17
GACAAGCAAUAUUACGACUC | 0.206 ± 0.1 | 0.387 ± 0.12
UCGCAGCAAUAUUACGCUUG | -1.93 ± 0.14 | -1.83 ± 0.15
AUUCAGCAAUAUUACGCUCU | -0.186 ± 0.094 | 0.683 ± 0.12
UACUAGCAAUAUUACGUCGU | -2.15 ± 0.16 | -1.96 ± 0.18
ACGCAGCAAUAUUACGUUUA | -2.58 ± 0.12 | -1.42 ± 0.095
AUUGAGCAAUAUUACGCAUG | -4 ± 0.32 | -0.903 ± 0.26

Sequence | self-splicing fitness (ln) (30 °C) | self-splicing fitness (ln) (37 °C)
GCUGAGCAAUAUUACGUUGG | -2.52 ± 0.26 | -1.9 ± 0.28
GCGUAGCAAUAUUACGAUCU | -1.34 ± 0.17 | -0.0119 ± 0.18
GUUUAGCAAUAUUACGGCGC | 0.141 ± 0.16 | 0.337 ± 0.17
AUUAAGCAAUAUUACGGGUA | -2.2 ± 0.17 | -0.0398 ± 0.12
AGUUAGCAAUAUUACGGAGG | -2.91 ± 0.3 | -2.13 ± 0.41
AAACAGCAAUAUUACGGGUU | -2.28 ± 0.09 | -1.8 ± 0.11
ACUUAGCAAUAUUACGCUGC | -3.82 ± 0.32 | -2.36 ± 0.22
UUAAAGCAAUAUUACGCGAU | -3.01 ± 0.24 | -0.953 ± 0.17
GAAGAGCAAUAUUACGUGGU | -4.07 ± 0.23 | -3.01 ± 0.32
UCCAAGCAAUAUUACGUUGU | -3.79 ± 0.16 | -1.7 ± 0.13
GCAUAGCAAUAUUACGCAUA | -2.29 ± 0.15 | -1.16 ± 0.12
GGAAAGCAAUAUUACGUCUA | -0.626 ± 0.11 | 0.689 ± 0.14
UUAGAGCAAUAUUACGUUUG | -2.04 ± 0.11 | -1.05 ± 0.14
AGCUAGCAAUAUUACGGACC | -0.63 ± 0.12 | -0.00494 ± 0.17
UGUGAGCAAUAUUACGAGUU | -2.72 ± 0.22 | -1.97 ± 0.27
CUCUAGCAAUAUUACGGCGG | -3.5 ± 0.15 | -3.12 ± 0.23
UCAGAGCAAUAUUACGCACA | -1.74 ± 0.29 | 0.554 ± 0.43
GCAAAGCAAUAUUACGUUUA | -2.29 ± 0.12 | -1.75 ± 0.13
AUGAAGCAAUAUUACGGAGC | -3.69 ± 0.39 | -1.72 ± 0.2
UACCAGCAAUAUUACGUAAG | -3.73 ± 0.15 | -1.99 ± 0.15
CCCAAGCAAUAUUACGGGAA | -2.75 ± 0.17 | -1.96 ± 0.16
AAUCAGCAAUAUUACGUAAA | -0.168 ± 0.067 | 0.573 ± 0.099
UCAAAGCAAUAUUACGAACC | -2.8 ± 0.27 | -0.879 ± 0.28
UCAUAGCAAUAUUACGUUUU | -2.81 ± 0.14 | -1.29 ± 0.14

Sequence | self-splicing fitness (ln) (30 °C) | self-splicing fitness (ln) (37 °C)
AGGCAGCAAUAUUACGCAUG | -2.69 ± 0.17 | -0.809 ± 0.17
GGUCAGCAAUAUUACGUUUC | 0.000828 ± 0.13 | -0.437 ± 0.14
UCGUAGCAAUAUUACGGGGU | -3.35 ± 0.23 | -2.35 ± 0.25
CCUGAGCAAUAUUACGGCUC | -3.81 ± 0.37 | -2.97 ± 0.41
UAGAAGCAAUAUUACGCUCU | -2.53 ± 0.2 | -2.75 ± 0.32
GCCCAGCAAUAUUACGCAGA | -3.37 ± 0.28 | -3.47 ± 0.42
UGUCAGCAAUAUUACGUAAG | -0.352 ± 0.07 | 0.0208 ± 0.087
UAUUAGCAAUAUUACGCUGG | -2 ± 0.14 | -0.655 ± 0.14
UUUCAGCAAUAUUACGACGU | -1.71 ± 0.17 | -0.698 ± 0.18
UCUGAGCAAUAUUACGAUCU | -3.4 ± 0.35 | -2.52 ± 0.21
AGCUAGCAAUAUUACGAUUU | -0.0195 ± 0.06 | 0.214 ± 0.086
GAUCAGCAAUAUUACGCAUA | -0.521 ± 0.082 | -0.0106 ± 0.084
UCAGAGCAAUAUUACGUGAU | -3.03 ± 0.32 | -2.94 ± 0.26
UCGAAGCAAUAUUACGGCGU | -0.22 ± 0.087 | -0.249 ± 0.12
GGAUAGCAAUAUUACGUACA | -1.42 ± 0.097 | -0.395 ± 0.098
UCUUAGCAAUAUUACGGGGG | -2.89 ± 0.39 | -2.51 ± 0.3
GCACAGCAAUAUUACGUUGG | -1.6 ± 0.058 | -0.74 ± 0.071
UUGCAGCAAUAUUACGGAAU | -2.83 ± 0.3 | 
UAUCAGCAAUAUUACGAAGA | -0.93 ± 0.12 | -0.91 ± 0.13
CCAGAGCAAUAUUACGGGCA | -2.92 ± 0.28 | -2.64 ± 0.38
AUUAAGCAAUAUUACGCGGU | -3.93 ± 0.47 | -3.09 ± 0.35
UAACAGCAAUAUUACGAUCA | -0.292 ± 0.074 | 0.115 ± 0.07
CAUGAGCAAUAUUACGGAGA | -3.91 ± 0.35 | -2.58 ± 0.48
GGGUAGCAAUAUUACGCCAC |  | -1.72 ± 0.48
